Data reported in US20220306765A1.

Key:
[1] = target: human FcγRI (human) (UniProt P12314); assay: BLI (Octet), receptor on sensor
[2] = target: human FcγRIIIa-F176 (human) (UniProt P08637); assay: BLI (Octet), receptor on sensor
[3] = target: human FcγRIIIa-V176 (human) (UniProt P08637); assay: BLI (Octet), receptor on sensor
[4] = target: human FcγRIIIb-NA1 (human) (UniProt O75015); assay: BLI (Octet), receptor on sensor
[5] = target: human FcγRIIIb-NA2 (human) (UniProt O75015); assay: BLI (Octet), receptor on sensor
[6] = target: human FcγRIIa-H167 (human) (UniProt P12318); assay: BLI (Octet), receptor on sensor
[7] = target: human FcγRIIa-R167 (human) (UniProt P12318); assay: BLI (Octet), receptor on sensor
[8] = target: human FcγRIIb (human) (UniProt P31994); assay: BLI (Octet), receptor on sensor
[9] = target: Human FcRn (FCGRT&B2M) Protein (human) (UniProt P55899); assay: BLI (Octet), FcRn on sensor, pH 6.0
[10] = target: human FcγRIIIa-F176 (human) (UniProt P08637); assay: BLI (Octet RED96), biotinylated receptor on SA sensor
[11] = target: human FcγRIIIa-V176 (human) (UniProt P08637); assay: as above
[12] = target: Human FcRn (FCGRT&B2M) Protein (human) (UniProt P55899); assay: BLI (Octet RED96), His-tagged FcRn on Ni-NTA sensor, pH 6.0
[13] = target: human C1q (human) (UniProt P02745); assay: BLI (Octet), biotinylated antibody on sensor, C1q in solution
[14] = target: human C1q (human) (UniProt P02745); assay: BLI (Octet RED96), biotinylated antibody on SA sensor, C1q in solution
[15] = target: human CLDN18.2 (human); assay: flow cytometry on NCI-H146 cells; unit taken from the concentration axis; fit of the flat control curve

Sequence of human FcγRIIIa-F176 (human) (P08637 17-208 limits assumed): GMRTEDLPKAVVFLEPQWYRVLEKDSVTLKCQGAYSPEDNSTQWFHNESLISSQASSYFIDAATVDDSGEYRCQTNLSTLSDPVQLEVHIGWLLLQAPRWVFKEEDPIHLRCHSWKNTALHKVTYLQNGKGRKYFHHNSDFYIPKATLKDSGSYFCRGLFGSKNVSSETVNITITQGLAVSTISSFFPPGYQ
Sequence of human FcγRIIIa-V176 (human) (P08637 17-208 F176V limits assumed): as the sequence (P08637 17-208 limits assumed) above, with F160V counted along it
Sequence of human C1q (human) (P02745 23-245, chain 1 of 3): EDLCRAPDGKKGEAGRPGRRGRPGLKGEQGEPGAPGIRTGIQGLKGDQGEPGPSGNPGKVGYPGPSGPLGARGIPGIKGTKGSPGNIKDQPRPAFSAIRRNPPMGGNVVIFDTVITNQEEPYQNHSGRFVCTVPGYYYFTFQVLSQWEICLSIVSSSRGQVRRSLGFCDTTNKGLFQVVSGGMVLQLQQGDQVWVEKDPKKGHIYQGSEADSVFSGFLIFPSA
Sequence of human C1q (human) (P02746 28-253, chain 2 of 3, further chain): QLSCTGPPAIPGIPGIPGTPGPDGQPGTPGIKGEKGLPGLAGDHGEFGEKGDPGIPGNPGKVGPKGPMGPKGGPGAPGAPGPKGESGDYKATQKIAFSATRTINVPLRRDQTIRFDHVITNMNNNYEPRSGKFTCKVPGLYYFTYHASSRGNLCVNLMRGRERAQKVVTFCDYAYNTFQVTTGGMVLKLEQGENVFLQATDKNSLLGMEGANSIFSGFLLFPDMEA
Sequence of human C1q (human) (P02747 29-245, chain 3 of 3, further chain): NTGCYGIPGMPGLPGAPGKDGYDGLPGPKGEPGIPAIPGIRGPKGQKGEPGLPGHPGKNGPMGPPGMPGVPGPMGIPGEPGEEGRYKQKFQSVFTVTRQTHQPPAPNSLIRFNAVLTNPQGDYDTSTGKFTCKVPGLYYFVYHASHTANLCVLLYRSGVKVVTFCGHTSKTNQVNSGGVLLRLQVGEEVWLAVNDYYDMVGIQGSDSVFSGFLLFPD
Sequence of human FcγRIIIb-NA1 (human) (O75015 other isoform, or with tags, fused parts or gaps limits assumed): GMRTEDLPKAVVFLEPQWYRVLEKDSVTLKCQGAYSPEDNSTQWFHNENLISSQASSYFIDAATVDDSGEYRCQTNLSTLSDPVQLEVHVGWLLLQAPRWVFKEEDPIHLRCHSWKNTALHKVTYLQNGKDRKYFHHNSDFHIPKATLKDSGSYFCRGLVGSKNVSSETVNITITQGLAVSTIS
Sequence of human FcγRI (human) (P12314 16-288 limits assumed): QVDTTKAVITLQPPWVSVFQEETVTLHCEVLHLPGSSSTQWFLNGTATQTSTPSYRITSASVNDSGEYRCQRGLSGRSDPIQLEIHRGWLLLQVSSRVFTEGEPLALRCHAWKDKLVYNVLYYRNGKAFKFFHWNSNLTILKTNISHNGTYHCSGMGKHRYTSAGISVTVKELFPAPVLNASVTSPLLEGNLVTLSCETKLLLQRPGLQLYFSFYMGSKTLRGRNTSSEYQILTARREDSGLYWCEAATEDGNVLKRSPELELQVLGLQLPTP
Sequence of human FcγRIIa-H167 (human) (P12318 36-218 limits assumed): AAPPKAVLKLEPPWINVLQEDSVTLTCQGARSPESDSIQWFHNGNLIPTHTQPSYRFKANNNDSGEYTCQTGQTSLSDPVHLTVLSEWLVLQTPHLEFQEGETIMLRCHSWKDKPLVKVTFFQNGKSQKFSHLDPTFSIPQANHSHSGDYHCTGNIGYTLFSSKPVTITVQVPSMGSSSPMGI
Sequence of human FcγRIIa-R167 (human) (P12318 36-218 H167R limits assumed): as the sequence (P12318 36-218 limits assumed) above, with H132R counted along it
Sequence of human FcγRIIb (human) (P31994 46-217 limits assumed): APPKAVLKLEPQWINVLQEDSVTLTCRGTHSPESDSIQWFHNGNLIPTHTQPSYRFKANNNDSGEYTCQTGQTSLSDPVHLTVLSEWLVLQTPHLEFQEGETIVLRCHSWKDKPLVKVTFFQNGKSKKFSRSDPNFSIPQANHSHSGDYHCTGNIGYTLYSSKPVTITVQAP
Sequence of human FcγRIIIb-NA2 (human) (O75015 17-200 N65S limits assumed): as the sequence (O75015 other isoform, or with tags, fused parts or gaps limits assumed) above, with R20S, N49S, D66N, V90I counted along it

| Kd [1] | Kd [2] | Kd [3] | Kd [4] | Kd [5] | Kd [6] | Kd [7] | Kd [8] | Kd [9] | Kd [10] | Kd [11] | Kd [12] | Kd [13] | Kd [14] | EC50 [15] | Substance |
| --- | --- | --- | --- | --- | --- | --- | --- | --- | --- | --- | --- | --- | --- | --- | --- |
| 5.22 nM | 232 nM | 61.5 nM | 3970 nM | 3160 nM | 193 nM | 117 nM | 230 nM | 10.5 nM | 232 nM | 61.5 nM | 10.5 nM | 21.5 nM | 21.5 nM |  | IMAB362 (antibody) |
|  |  |  |  |  |  |  |  |  |  |  |  |  |  | 3.67 µg/mL | Isotype Control (antibody) |
